Key:
[1] = test system: B2M; test: sgRNA screening for B2M knockout in LSCs (nucleofection, FACS); type: cell-based, human; details: Cas9 protein SEQ ID NO: 106, LSCs at passage 3, FACS after around 3 days
Experimental: Cells were cultured under these conditions for 24-48 hours at 37° C. in 5% CO2.
LSCs were nuclofected with selected gRNAs (Table 6) followed by FACS analysis / MACS separation.
After scraping the cells, the reaction was stopped by using cell culture medium containing 10% Serum and transferred to a falcon tube. After counting cells using Vi-cell 300′000 cells were prepared per reaction by transferring 300′000 cells in single tubes and centrifuged at 1000 rpm for 5 min. The supernatant was aspirated using manually pipetting to avoid cell loss and the cells were resuspended in the Stem cell nucleofector solution II (Lonza, Cat #VPH-5022). Resuspend cells in nucleofector solution immediately before adding the Cas9 RNP:sgRNA mixture. To obtain the nucleofection mixture, 5 µg high concentrated (≥5 µg/µl) Cas9 protein of SEQ ID NO: 106 (volume = 0.78 µl) was mixed with 19.5 µg sgRNA of Table 6 (volume = 12.2 µl) and incubated for 20 min at room temperature. […] The Cas9 protein-guideRNA complex was added to the cell suspension and transferred to the electroporation cuvette immediately. Cells were transfected using the nucelofector device (Lonza, Amaxa Nucleofector II) and program A023. After nucleofection cells were transferred from cuvette to one well of a 24 well synthemax coated plate containing pre-warmed LSC medium including 3 µM LATS compound and 10 µM Rock inhibitor Y-27632 (Nature 1997, vol. 389, pp. 990-994). Incubate LSCs in a 5% CO2 incubator for around 3 days until cells are 90% confluent.
LSCs were treated with TryLE®Express Enzym (ThermoFisher, Cat #12605010) for 15 minutes in 5% CO2 at 37° C. After scraping the cells, the reaction was stopped by using cell culture medium containing 10% Serum and transferred to a falcon tube for a centrifugation step (1000 rpm, 5 minutes). After aspirating the medium cells were resuspended in 200 µl FACS buffer (PBS/10%FBS).
(§1) To analyze the expression of B2M and HLA-ABC, 5 µl APC mouse anti-human β2-microglobulin antibody (Biolegend, Cat#316312) and 20 µl PE mouse anti-human HLA-ABC antibody (BD Bioscience, Cat # 560168) were added to the cell suspension and incubated for 30 minutes on ice.
Cells were washed 3 times after antibody labelling with FACS buffer and resuspended in 200 µl in FACS buffer (depending on the cell number).
FACS data were analyzed using BD FACSDiva software and FlowJo software.

[2] = test system: B2M; test: Targeted PCR and NGS (amplicon sequencing) of on-target and off-target sites in genome-edited LSCs; type: cell-based, human; details: for validated indels for off-target activity in LSCs: amplicon sequencing of potential off-target loci; for Number of sites positive for off-target activity in LSCs: of the potential off-target loci sequenced; for B2M purified rhAmpSeq indel: purified (B2M negative) LSC populations
Experimental: Potential CRISPR/Cas9-mediated cutting sites identified above were evaluated using targeted PCR and NGS in genome-edited expanded LSCs.
Selected sgRNAs (SEQ ID NO: 120, 162, 166, 167, 171, and 175) were further analyzed by amplicon sequencing in edited and non-edited cells. Primers flanking the potential off-target sites for each guide were used to detect indels by NGS analysis in edited LSCs and non-edited peripheral blood mononuclear cells. Sites that had either (1) a difference in mean indel percentage between edited and unedited cells greater than 0.5%; or (2) a p value less than 0.05 between edited and unedited indel were further analyzed. NGS sequence reads for such sites were assessed for characteristic indel patterns near the putative Cas9 cut site. Based on the results, we could assess the specificity of gRNAs and their suitability for therapeutic applications.

[3] = test system: human B2M; test: CRISPR/Cas9-mediated deletion of B2M in HEK293 (lipofection, FACS); type: cell-based; details: lipofection of tracrRNA, gRNA and Cas9 mRNA; FACS after 72 h
Experimental: One day before transfection, 500′000 HEK293cells (ATCC, Manassas, VA) were plated in a 35 mm dish and grown in DMEM/10%FBS. The following day, cells were transfected with a mixture of tracrRNA-gRNA-Cas9 mRNA. A stock of 10 micromolar was prepared resuspending 20 nanomoles of gRNA and 20 nanomoles tracrRNA in 2000 microlitre 10 millimolar Tris buffer pH7.4 each.
The mixture was added drop wise to the culture dish in 2.5 ml DMEM/10%FBS medium. The transfection reagent alone represented the transfection negative control.
After 6 h incubation in 5% CO2 at 37° C. medium was replaced with fresh DMEM/10%FBS medium. After 72 h in a 5% CO2 incubator cells were prepared for FACS analysis. FACS analysis: HEK293 cells were treated with Accutase (ThermoFisher, Cat # A1110501) for 20 minutes in 5% CO2 at 37° C. The reaction was stopped by using cell culture medium containing 10% Serum and transferred to a falcon tube for a centrifugation step (1000 rpm, 5 minutes). After aspirating the medium cells were resuspended in 200 microlitre FACS buffer (PBS/10%FBS).
as §1, with “microlitre” for “µl”, “Cat #316312)” for “Cat#316312)”, “ice. Cells were washed 3 times after antibody labelling with FACS buffer and resuspended in 500 microlitre in FACS buffer.” for “ice.”
Each sample was transferred to one well of a round bottom 96 well plate and analyzed on a BD LSRFortessa X-20 device. FACS data were analyzed using BD FACSDiva software.

[4] = test system: genomic DNA purified from male human peripheral blood mononuclear cells; test: Biochemical assay for potential off-target genomic sites cleaved by Cas9 and B2M guides; details: number of potential off-target sites, guide concentration 64 nM
Experimental: A biochemical method (See, e.g., Cameron et al., Nature Methods. 6, 600-606; 2017) was used to determine potential off-target genomic sites cleaved by Cas9 and selected B2M guides. Guides showing B2M indel activity were tested for potential off-target genomic cleavage sites with this assay. […] The number of potential off-target sites detected using a guide concentration of 64 nM in the biochemical assay are shown in Table 10. As a result of this analysis, several gRNAs were selected for analysis of potential off-target activity in limbal stem cells.

Row | Molecule | B2M knockout efficiency in LSCs after nucleofection [1] [%] | validated indels for off-target activity in LSCs [2] | Number of sites positive for off-target activity in LSCs [2] | B2M purified rhAmpSeq indel [2] [%] | B2M knockout efficiency in HEK293 [3] [%] | off-target Site_ Count [4] | also measured
1 | 4-CR004366: gRNA targeting human B2M; targeting domain SEQ ID NO: 111; sgRNA SEQ ID NO: 162; from Dharmacon (nucleic acid, listed as RNA, chemistry not given here, gRNA targeting human B2M; from Dharmacon) guide: CAGUAAGUCAACUUCAAUGUGUUUUAGAGCUAGAAAUAGCAAGUUAAAAUAAGGCUAGUCCGUUAUCAACUUGAAAAAGUGGCACCGAGUCGGUGCUUUU | 22 | zero | 0 of 88 | 99.85±0.21 | 48 | 92 | Number of sites positive for off-target activity in LSCs ([2]; listed as SEQ ID NO: 162): no predicted sites tested positive for off-target activity; B2M purified rhAmpSeq indel ([2]; listed as SEQ ID NO: 162): ~ 99%
2 | CR000455: gRNA targeting human B2M; targeting domain SEQ ID NO: 138; sgRNA SEQ ID NO: 175 (nucleic acid, listed as RNA, chemistry not given here) guide: UUACCCCACUUAACUAUCUUGUUUUAGAGCUAGAAAUAGCAAGUUAAAAUAAGGCUAGUCCGUUAUCAACUUGAAAAAGUGGCACCGAGUCGGUGCUUUU | 24 | zero | 0 of 46 | 99.33±0.32 | – | 48 | Number of sites positive for off-target activity in LSCs ([2]; listed as SEQ ID NO: 175): no predicted sites tested positive for off-target activity; B2M purified rhAmpSeq indel ([2]; listed as SEQ ID NO: 175): ~ 99%
3 | CR000446: gRNA targeting human B2M; targeting domain SEQ ID NO: 136; sgRNA SEQ ID NO: 173 (nucleic acid, listed as RNA, chemistry not given here) guide: AGGGUAGGAGAGACUCACGCGUUUUAGAGCUAGAAAUAGCAAGUUAAAAUAAGGCUAGUCCGUUAUCAACUUGAAAAAGUGGCACCGAGUCGGUGCUUUU | 27 | – | – | – | – | 98 | –
4 | CR000453: gRNA targeting human B2M; targeting domain SEQ ID NO: 137; sgRNA SEQ ID NO: 174 (nucleic acid, listed as RNA, chemistry not given here) guide: CACAGCCCAAGAUAGUUAAGGUUUUAGAGCUAGAAAUAGCAAGUUAAAAUAAGGCUAGUCCGUUAUCAACUUGAAAAAGUGGCACCGAGUCGGUGCUUUU | 5 | – | – | – | – | 82 | –
5 | 9-HEYJA000005: gRNA targeting human B2M; targeting domain SEQ ID NO: 116; sgRNA SEQ ID NO: 167 (nucleic acid, listed as RNA, chemistry not given here) guide: UCACGUCAUCCAGCAGAGAAGUUUUAGAGCUAGAAAUAGCAAGUUAAAAUAAGGCUAGUCCGUUAUCAACUUGAAAAAGUGGCACCGAGUCGGUGCUUUU | 12 | zero | 0 of 35 | 99.80±0.26 | 39 | 35 | Number of sites positive for off-target activity in LSCs ([2]; listed as SEQ ID NO: 167): no predicted sites tested positive for off-target activity; B2M purified rhAmpSeq indel ([2]; listed as SEQ ID NO: 167): ~ 99%
6 | 8-HEYJA000004: gRNA targeting human B2M; targeting domain SEQ ID NO: 115; sgRNA SEQ ID NO: 166 (nucleic acid, listed as RNA, chemistry not given here) guide: ACUCACGCUGGAUAGCCUCCGUUUUAGAGCUAGAAAUAGCAAGUUAAAAUAAGGCUAGUCCGUUAUCAACUUGAAAAAGUGGCACCGAGUCGGUGCUUUU | 22 | zero | 0 of 60 | 99.95±0.07 | 65 | 62 | Number of sites positive for off-target activity in LSCs ([2]; listed as SEQ ID NO: 166): no predicted sites tested positive for off-target activity; B2M purified rhAmpSeq indel ([2]; listed as SEQ ID NO: 166): ~ 99%
7 | CR000456: gRNA targeting human B2M; targeting domain SEQ ID NO: 139; sgRNA SEQ ID NO: 176 (nucleic acid, listed as RNA, chemistry not given here) guide: CUUACCCCACUUAACUAUCUGUUUUAGAGCUAGAAAUAGCAAGUUAAAAUAAGGCUAGUCCGUUAUCAACUUGAAAAAGUGGCACCGAGUCGGUGCUUUU | 3 | – | – | – | – | 66 | –
8 | 6-HEYJA000001: gRNA targeting human B2M; targeting domain SEQ ID NO: 113; sgRNA SEQ ID NO: 164 (nucleic acid, listed as RNA, chemistry not given here) guide: GGCCGAGAUGUCUCGCUCCGGUUUUAGAGCUAGAAAUAGCAAGUUAAAAUAAGGCUAGUCCGUUAUCAACUUGAAAAAGUGGCACCGAGUCGGUGCUUUU | 33 | – | – | – | 47 | 8 | –
9 | CR000443: gRNA targeting human B2M; targeting domain SEQ ID NO: 135; sgRNA SEQ ID NO: 172 (nucleic acid, listed as RNA, chemistry not given here) guide: CGCGAGCACAGCUAAGGCCAGUUUUAGAGCUAGAAAUAGCAAGUUAAAAUAAGGCUAGUCCGUUAUCAACUUGAAAAAGUGGCACCGAGUCGGUGCUUUU | 25 | – | – | – | – | 117 | –
10 | CR000442: gRNA targeting human B2M; targeting domain SEQ ID NO: 134; sgRNA SEQ ID NO: 171 (nucleic acid, listed as RNA, chemistry not given here) guide: GGCCACGGAGCGAGACAUCUGUUUUAGAGCUAGAAAUAGCAAGUUAAAAUAAGGCUAGUCCGUUAUCAACUUGAAAAAGUGGCACCGAGUCGGUGCUUUU | 62 | zero | 0 of 28 | 99.10±0.26 | – | 29 | Number of sites positive for off-target activity in LSCs ([2]; listed as SEQ ID NO: 171): no predicted sites tested positive for off-target activity; B2M purified rhAmpSeq indel ([2]; listed as SEQ ID NO: 171): ~ 99%

Source: patent publication US20230348852A1, “METHODS AND COMPOSITIONS FOR OCULAR CELL THERAPY” (NOVARTIS AG, priority 2020, published 2023)
